Our source for the percent of parent and stoichiometry N values is publication PMC7096399.

The target in test [1] is His6-tagged FGF2 (Fibroblast Growth Factor 2, 18 kDa isoform), wild type, P09038-2. Put plainly: AlphaScreen. The note with it: His-FGF2 and GST-α1-subCD3 variants cross-titrated from 500 to 8 nM in PBS, 0.1% (w per v) BSA, 0.05% (w per v) Tween 20; selected concentration pairs …; parent: est. 100; read off a plot. On the technique in general: In Alpha technology, singlet oxygen from a donor bead excites a nearby acceptor bead.

The target in test [2] is α1-subCD3 as used in cross-linking and NMR experiments (migrates at 27 kDa) (human) (UniProt P05023). Put plainly: cross-linking; BMOE (1:1 to protein) or DSG (4:1) at 25 °C in HK buffer (25 mM Hepes pH 7.4, 150 mM KCl); single proteins 10 µM, mixtures 20 µM total at ratios 1:1, 1:2, 2:1; SDS-PAGE with Coomassie staining or western blot. On the technique in general: Immunoblotting shows a protein as a band on a membrane.

For “GST-α1-subCD3, small sub-domain of loop 3 of the cytoplasmic domain of α1 (from UniProt P05023) K524E; E525R”, the percent of parent in test [1] is 100%.

As to “GST-α1-subCD3, small sub-domain of loop 3 of the cytoplasmic domain of α1, P05023 K524M; E525Q; E498Q”, the percent of parent in test [1] came to 110%.

With “GST-α1-subCD3, small sub-domain of loop 3 of the cytoplasmic domain of α1 (from UniProt P05023) K524M; E525Q”, in test [1], the percent of parent worked out at 100%.

For “His6-tagged FGF2 (Fibroblast Growth Factor 2, 18 kDa isoform), wild type (from UniProt P09038-2 1-155) (natural protein)”, the stoichiometry N in test [2] amounted to 1.

In the case of “GST-α1-subCD3, small sub-domain of loop 3 of the cytoplasmic domain of α1, P05023 D560N”, the percent of parent in test [1] is 60%.

In general, stoichiometry N refers to a count of units in the complex or per binding partner.
